According to patent US20170101470A1 (PROTHENA BIOSCIENCES, published 2017):

Columns and labels:
Experiment in all cases: shotgun mutagenesis, immunodetection on BHK-S cells, 0.25 ug/mL, background-subtracted and normalised to WT, triplicate
[1] = target: T1, human MCAM I207A mutant clone on BHK-S cells (human) (UniProt P43121)
T1 sequence: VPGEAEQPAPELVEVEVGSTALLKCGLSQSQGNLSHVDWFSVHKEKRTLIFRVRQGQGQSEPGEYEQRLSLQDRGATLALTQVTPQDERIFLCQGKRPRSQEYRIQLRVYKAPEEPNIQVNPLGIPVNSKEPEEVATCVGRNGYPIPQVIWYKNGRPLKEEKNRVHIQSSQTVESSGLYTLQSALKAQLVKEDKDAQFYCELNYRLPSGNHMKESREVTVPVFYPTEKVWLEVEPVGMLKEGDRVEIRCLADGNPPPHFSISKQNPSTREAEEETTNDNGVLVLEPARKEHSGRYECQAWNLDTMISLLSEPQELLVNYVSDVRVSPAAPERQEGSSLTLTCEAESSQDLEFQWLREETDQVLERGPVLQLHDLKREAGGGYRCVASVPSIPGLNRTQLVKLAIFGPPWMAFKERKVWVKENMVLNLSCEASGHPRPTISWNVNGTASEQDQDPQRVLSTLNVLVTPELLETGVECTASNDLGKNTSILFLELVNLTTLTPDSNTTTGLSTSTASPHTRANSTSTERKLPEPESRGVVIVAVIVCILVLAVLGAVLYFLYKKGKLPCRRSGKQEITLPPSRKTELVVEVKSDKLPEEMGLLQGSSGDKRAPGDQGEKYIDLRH

[2] = target: T2, human MCAM L225A mutant clone on BHK-S cells (human) (UniProt P43121)
T2 sequence: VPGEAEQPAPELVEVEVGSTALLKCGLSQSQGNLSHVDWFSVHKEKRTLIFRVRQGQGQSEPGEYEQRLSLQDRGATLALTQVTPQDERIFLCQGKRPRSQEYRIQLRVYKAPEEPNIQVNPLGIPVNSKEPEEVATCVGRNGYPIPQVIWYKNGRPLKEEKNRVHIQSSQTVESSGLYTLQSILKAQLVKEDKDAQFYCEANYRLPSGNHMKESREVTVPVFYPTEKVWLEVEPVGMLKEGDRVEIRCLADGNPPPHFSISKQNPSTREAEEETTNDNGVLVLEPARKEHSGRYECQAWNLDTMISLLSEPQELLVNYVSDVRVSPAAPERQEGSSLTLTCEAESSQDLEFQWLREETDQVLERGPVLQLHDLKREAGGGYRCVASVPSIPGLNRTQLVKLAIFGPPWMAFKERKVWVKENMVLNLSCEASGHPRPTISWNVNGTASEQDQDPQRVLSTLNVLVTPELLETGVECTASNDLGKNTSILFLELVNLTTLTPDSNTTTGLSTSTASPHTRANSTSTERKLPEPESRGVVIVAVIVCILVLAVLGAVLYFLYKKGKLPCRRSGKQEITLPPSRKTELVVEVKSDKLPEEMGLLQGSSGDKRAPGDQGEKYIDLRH

[3] = target: T3, human MCAM S238A mutant clone on BHK-S cells (human) (UniProt P43121)
T3 sequence: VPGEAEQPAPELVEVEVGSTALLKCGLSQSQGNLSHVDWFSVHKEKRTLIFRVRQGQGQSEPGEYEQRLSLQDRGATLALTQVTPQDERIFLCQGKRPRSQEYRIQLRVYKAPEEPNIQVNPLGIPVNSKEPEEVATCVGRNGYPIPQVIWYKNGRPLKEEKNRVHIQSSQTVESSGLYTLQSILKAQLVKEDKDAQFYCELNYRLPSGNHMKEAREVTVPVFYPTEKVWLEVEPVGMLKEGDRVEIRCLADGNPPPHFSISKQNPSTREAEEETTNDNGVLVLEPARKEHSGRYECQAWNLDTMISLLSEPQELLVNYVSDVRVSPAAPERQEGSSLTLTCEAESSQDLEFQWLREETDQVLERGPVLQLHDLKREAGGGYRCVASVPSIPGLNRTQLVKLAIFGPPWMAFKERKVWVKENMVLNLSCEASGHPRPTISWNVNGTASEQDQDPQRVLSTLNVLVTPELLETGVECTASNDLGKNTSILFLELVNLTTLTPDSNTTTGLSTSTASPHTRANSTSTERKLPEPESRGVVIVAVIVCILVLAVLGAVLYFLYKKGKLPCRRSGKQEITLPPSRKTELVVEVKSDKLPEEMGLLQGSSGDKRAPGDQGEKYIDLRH

[4] = target: T4, human MCAM Y167A mutant clone on BHK-S cells (human) (UniProt P43121)
T4 sequence: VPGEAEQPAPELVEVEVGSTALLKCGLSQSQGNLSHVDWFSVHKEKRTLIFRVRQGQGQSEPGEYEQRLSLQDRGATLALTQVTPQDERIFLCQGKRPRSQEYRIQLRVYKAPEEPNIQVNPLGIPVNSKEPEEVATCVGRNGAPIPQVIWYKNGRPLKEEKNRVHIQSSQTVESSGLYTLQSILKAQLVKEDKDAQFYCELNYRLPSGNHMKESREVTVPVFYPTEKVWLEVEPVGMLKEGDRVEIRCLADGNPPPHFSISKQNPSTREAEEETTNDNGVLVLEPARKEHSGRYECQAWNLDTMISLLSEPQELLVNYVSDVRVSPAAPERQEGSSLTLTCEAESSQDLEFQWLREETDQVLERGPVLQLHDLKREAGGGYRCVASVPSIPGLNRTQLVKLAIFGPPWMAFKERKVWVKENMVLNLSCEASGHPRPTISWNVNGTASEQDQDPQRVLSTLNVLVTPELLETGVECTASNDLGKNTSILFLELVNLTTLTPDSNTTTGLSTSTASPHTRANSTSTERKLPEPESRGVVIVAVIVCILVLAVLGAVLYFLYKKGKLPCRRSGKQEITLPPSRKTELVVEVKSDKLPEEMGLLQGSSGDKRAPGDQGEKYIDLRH

B1: rat anti-human MCAM monoclonal antibody clone 2120.4.19 (antibody, V domains shown)
VH: QVQLKESGPGLVQPSQTLSLTCTVSGFSLTSNGVSWVRQPPGKGLEWIAAISSGGTTYYNSAFKSRLSISRNTSKSQVLLKMNSLQTEDTAMYFCARRYGYGWYFDFWGPGTMVTVSS
VL: DIRMTQSPSLLSASVGDRVTLNCKASQNIYNSLAWYQQKLGEGPKVLIPNANSLQTGIPSRFSGSGSGTDFTLTISSLQPEDFATYFCQQFYSGYTFGAGTKLELK
notes: also called m2120
Work on B1 yielded a mean reactivity (% of wild type MCAM) [1] of 23.6 % WT, a mean reactivity (% of wild type MCAM) [2] of 23.8 % WT and a mean reactivity (% of wild type MCAM) [3] of 28.9 % WT. For the same binder, the mean reactivity (% of wild type MCAM) [4] was 14.3 % WT.
